US20180305699A1 (UNIVERSITY OF CHICAGO, published 2018)

Columns and labels:
[1] = molecular target: T1, methionyl-tRNA synthetase (Mes1) (S. cerevisiae, UniProt P00958 2-751, limits assumed); test: co-elution on Superdex200 gel filtration, western blot of fractions (AME complex of Arc1, Mes1 and Gus1)
T1 construct: Component of the purified AME complex; also called YGR264C
T1 sequence: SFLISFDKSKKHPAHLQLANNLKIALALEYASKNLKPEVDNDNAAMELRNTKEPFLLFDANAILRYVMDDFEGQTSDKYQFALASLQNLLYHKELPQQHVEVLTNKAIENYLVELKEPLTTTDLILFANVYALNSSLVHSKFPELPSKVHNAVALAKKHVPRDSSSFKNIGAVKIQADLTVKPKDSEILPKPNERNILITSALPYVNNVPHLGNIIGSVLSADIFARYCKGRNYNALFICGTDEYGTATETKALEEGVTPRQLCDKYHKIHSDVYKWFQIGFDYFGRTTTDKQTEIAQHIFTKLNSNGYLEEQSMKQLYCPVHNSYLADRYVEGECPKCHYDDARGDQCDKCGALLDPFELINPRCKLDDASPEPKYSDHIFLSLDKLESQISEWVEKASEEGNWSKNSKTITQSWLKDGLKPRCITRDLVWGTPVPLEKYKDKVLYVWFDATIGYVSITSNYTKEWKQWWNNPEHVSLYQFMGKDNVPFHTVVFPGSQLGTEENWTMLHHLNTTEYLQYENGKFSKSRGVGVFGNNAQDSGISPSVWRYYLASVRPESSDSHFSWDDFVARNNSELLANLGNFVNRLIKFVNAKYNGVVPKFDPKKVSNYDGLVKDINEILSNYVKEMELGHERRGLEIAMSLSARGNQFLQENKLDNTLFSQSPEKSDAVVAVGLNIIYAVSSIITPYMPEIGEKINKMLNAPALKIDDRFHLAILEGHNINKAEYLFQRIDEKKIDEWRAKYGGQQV
From the text: (§1) Shown on the left panel is the elution profile from Superdex200 gel filtration column.

[2] = molecular target: T2, glutamyl-tRNA synthetase (Gus1) (S. cerevisiae, UniProt P46655 1-708); test: as above
T2 construct: Component of the purified AME complex; also called YGL245W
T2 sequence: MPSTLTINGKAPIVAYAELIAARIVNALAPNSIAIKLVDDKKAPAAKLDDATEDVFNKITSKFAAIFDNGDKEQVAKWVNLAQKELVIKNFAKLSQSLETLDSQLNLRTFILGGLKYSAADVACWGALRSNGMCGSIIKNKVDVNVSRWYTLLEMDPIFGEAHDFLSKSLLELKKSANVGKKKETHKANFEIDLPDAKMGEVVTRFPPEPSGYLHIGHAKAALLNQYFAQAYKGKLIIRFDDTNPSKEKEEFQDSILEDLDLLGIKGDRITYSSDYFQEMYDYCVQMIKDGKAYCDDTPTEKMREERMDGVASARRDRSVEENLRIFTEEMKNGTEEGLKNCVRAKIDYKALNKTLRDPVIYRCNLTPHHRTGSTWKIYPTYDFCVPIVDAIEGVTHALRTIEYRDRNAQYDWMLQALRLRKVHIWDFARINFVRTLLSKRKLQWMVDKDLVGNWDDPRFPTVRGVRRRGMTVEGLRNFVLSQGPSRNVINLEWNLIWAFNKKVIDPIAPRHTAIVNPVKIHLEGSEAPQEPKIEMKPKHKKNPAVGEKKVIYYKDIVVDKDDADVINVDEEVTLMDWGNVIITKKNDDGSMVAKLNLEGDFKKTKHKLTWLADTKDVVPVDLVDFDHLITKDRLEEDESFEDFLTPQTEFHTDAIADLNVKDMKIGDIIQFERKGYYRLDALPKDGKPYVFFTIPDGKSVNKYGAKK
From the text: as §1

binding result [1]: binds
binding result [2]: binds
B1: aminoacylation cofactor (Arc1) (other)
chain: MSDLVTKFESLIISKYPVSFTKEQSAQAAQWESVLKSGQIQPHLDQLNLVLRDNTFIVSTLYPTSTDVHVFEVALPLIKDLVASSKDVKSTYTTYRHILRWIDYMQNLLEVSSTDKLEINHDLDLPHEVIEKKKKAPAGGAADAAAKADEDVSKKAKKQDHPRGKPDEETLKKLREEAKAKKAAKKAANAKQQQEQQNKAPEKPKPSAIDFRVGFIQKAIKHPDADSLYVSTIDVGDEEGPRTVCSGLVKHFPLDAMQERYVVVVCNLKPVNMRGIKSTAMVLCGSNDDKVEFVEPPKDSKAGDKVFFEGFGDEAPMKQLNPKKKIWEHLQPHFTTNDGLEVIFKDEEEKDHPVRKLTNAKGESFKVASIANAQVR
notes: Component of the purified AME complex; also called YGL105W
